Data on 1 substance can be found in PMC6089211, “Expression and purification of human diacylglycerol kinase α from baculovirus-infected insect cells for structural studies” (PeerJ, 2018).

The test system of the data set is T1, Nc1ncnc2c1ncn2[C@@H]1O[C@H](COP(=O)(O)OP(=O)(O)OP(=O)(O)O)[C@@H](O)[C@H]1O.
T1 construct: full-length DGKα (aa 1–735), N-terminal His×6 tag, Sf9-expressed
The data set is described as follows: Michaelis–Menten kinetics, mixed micelle ADP-Glo assay (Km). The data set is classed as biochemical, Homo sapiens. The following applies: Mg2+, Ca2+ substrate (ATP and DG) binding sites locate in the CD. For orientation: In ADP-Glo the light output rises with the ADP produced.

Sequence of diacylglycerol kinase α (DGKα) (Homo sapiens) (chain, as listed by the source): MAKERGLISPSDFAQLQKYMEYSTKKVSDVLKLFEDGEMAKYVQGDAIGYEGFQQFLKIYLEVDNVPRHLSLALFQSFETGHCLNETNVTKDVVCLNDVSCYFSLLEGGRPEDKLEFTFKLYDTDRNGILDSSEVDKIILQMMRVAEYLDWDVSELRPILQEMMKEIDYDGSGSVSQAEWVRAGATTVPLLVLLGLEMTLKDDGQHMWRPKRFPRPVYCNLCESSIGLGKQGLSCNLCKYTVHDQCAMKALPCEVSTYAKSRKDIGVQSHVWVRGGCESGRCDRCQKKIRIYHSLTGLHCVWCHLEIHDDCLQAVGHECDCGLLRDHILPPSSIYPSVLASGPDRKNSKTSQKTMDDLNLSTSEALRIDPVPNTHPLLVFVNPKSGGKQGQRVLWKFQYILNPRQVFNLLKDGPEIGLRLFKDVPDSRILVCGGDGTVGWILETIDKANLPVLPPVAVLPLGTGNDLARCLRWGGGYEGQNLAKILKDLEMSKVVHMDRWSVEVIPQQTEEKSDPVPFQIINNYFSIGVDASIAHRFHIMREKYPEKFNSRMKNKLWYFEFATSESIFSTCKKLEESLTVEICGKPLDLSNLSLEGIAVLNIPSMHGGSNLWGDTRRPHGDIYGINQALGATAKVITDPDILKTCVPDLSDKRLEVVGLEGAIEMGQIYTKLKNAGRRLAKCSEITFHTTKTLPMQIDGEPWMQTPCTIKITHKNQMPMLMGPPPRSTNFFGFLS

On to “diacylglycerol kinase α (DGKα) (Homo sapiens)”, for which the Km – broadly, the substrate concentration at which the rate is half of its maximum – amounted to 240 ± 30 µM and the Vmax was 2.66 ± 0.15 nmol/min/µg.
